Measurements as given in patent publication US20080306243A1, “Hla-Binding Peptide, and Dna Fragment and Recombinant Vector Coding for Said Hla-Binding Peptide” (NEC CORPORATION, priority 2005, published 2008).
Where two headings read alike, the source gives them in different places.

What was measured:
[1] = molecular target: HLA-A2402 molecule, which is a product of the HLA-A*2402 gene (human); assay: flow cytometry; reassociation of peptide, added β2m and HLA-A2402 on acid-stripped C1R-A24 cells, stained with mAb 17A12
[2] = molecular target: HLA-A0201 molecule, which is a product of the HLA-A*0201 gene (human); assay: flow cytometry; reassociation of peptide, added β2m and HLA-A0201 on acid-stripped JY cells, stained with mAb BB7.2; settings: remark: other sources report otherwise
[3] = molecular target: HLA-A0206 molecule, which is a product of the HLA-A*0206 gene (human); assay: flow cytometry; peptide stabilisation of empty HLA-A0206 on RA2.6 cells (TAP-deficient), stained with mAb 17A10 or 17A12
[4] = remark: other sources report otherwise

**Q.** Which -log Kd [1] does the source give for WVPVVFLTL (modifications not checked) [SEQ ID NO 2] here?
**A.** 7.29 -log Kd

**Q.** For MLLRLSEPA [SEQ ID NO 17], which -log Kd [2] is on record?
**A.** 6.2 -log Kd

**Q.** For GVLVHPQWV (modifications not checked) [SEQ ID NO 19], which -log Kd [3] is on record?
**A.** 6.28 -log Kd

**Q.** With LVASRGRAV (modifications not checked) [SEQ ID NO 22] as the binder, how does the -log Kd [3] read?
**A.** 5.25 -log Kd

**Q.** With WVPVVFLTL (modifications not checked) [SEQ ID NO 24] as the binder, how does the -log Kd [3] read?
**A.** 6.74 -log Kd

**Q.** For DLPTQEPAL (modifications not checked) [SEQ ID NO 27], which -log Kd [3] is on record?
**A.** 5.26 -log Kd

**Q.** DLPTQEPAL (modifications not checked) [SEQ ID NO 4] was tested. Which -log Kd [1, 4] did it give?
**A.** 5.23 -log Kd

**Q.** For WVLTAAHCI [SEQ ID NO 12], which -log Kd [1, 4] is on record?
**A.** 4.63 -log Kd
